# Experimental data as given in publication PMC9882070 (bioRxiv, 2023).
# Key:
# Assay in all cases: ThT fluorescence aggregation assay + negative-stain TEM
# [1] = molecular target: R1R3Ac, R1R3 tau peptide chemically acetylated with N-succinimidyl acetate
# [2] = molecular target: R2R3Ac, R2R3 tau peptide chemically acetylated with N-succinimidyl acetate
# [3] = molecular target: the molecule itself
Molecule,t1/2max of ThT aggregation [3] [h],further results
"R1R3Ac, R1R3 tau peptide chemically acetylated with N-succinimidyl acetate",,t1/2max of ThT aggregation [1]: 39.8 h
"R2R3Ac, R2R3 tau peptide chemically acetylated with N-succinimidyl acetate",,t1/2max of ThT aggregation [2]: 98.9 h
TENLQHQPGGGQVQIVYK [R1R3_12Q tau peptide],< 36,
TENLQHQPGGGKVQIVYQ [R1R3_13Q tau peptide],,binding result [3]: binds
KDNIQHVPGGGSVQIVYK [R2R3_2Q tau peptide],72 ± 7.2,
KDNIKHVPGGGSVQIVYQ [R2R3_3Q tau peptide],3.84,
TENLKHQPGGGQVQIVYQ [R1R3_23Q tau peptide],< 6,
TENLQHQPGGGQVQIINK [R1R2_12Q tau peptide],< 36,
